Measurements published in the supplement of paper PMC5998384.

Tests used:
HeLa Kyoto [1] = assay: thermal stability score vs G1/S (z-score of summed log2 fold changes over temperatures); higher = more thermally stable than in G1/S
HeLa Kyoto [2] = assay: solubility in G1/S (NP-40 vs SDS abundance) (log2 ratio); higher = more soluble; conditions: cell cycle stage: G1/S
HeLa Kyoto [3] = assay: melting temperature (median over replicates), in situ; higher = more thermally stable
HeLa Kyoto [4] = assay: solubility change mitosis vs G1/S (difference of NP-40 vs SDS log2 ratios) (log2 ratio difference); higher = more soluble in mitosis
[5] = cell cycle stage: early G1 (4.5 h after nocodazole release)
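For melting temperature (median over replicates), in situ in this document: HeLa Kyoto cells synchronized by double thymidine or nocodazole block, proteins quantified by TMT10plex mass spectrometry, three independent biological replicates.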
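For solubility change mitosis vs G1/S (difference of NP-40 vs SDS log2 ratios) in this document: synchronized HeLa Kyoto cells (double thymidine block for G1/S, nocodazole release for mitosis), protein amounts in NP-40 versus SDS lysates quantified by mass spectrometry, three biological replicates.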
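For solubility in G1/S (NP-40 vs SDS abundance) in this document: HeLa Kyoto cells arrested at G1/S by double thymidine block, proteins quantified by TMT10plex mass spectrometry in mild NP-40 versus SDS extracts, three biological replicates.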
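For thermal stability score vs G1/S (z-score of summed log2 fold changes over temperatures) in this document: synchronized HeLa Kyoto cells, proteins quantified by TMT10plex mass spectrometry, three biological replicates, mitosis taken 0.5 h after nocodazole release, G1/S directly after double thymidine block.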

Sequence	thermal stability score (HeLa Kyoto [1]; [5])	thermal stability score (HeLa Kyoto [1]; cell cycle stage: mitosis)	solubility in G1/S (log2) (HeLa Kyoto [2])	melting temperature (HeLa Kyoto [3]; cell cycle stage: G1/S) [°C]	melting temperature (HeLa Kyoto [3]; cell cycle stage: mitosis) [°C]	solubility change mitosis (log2) (HeLa Kyoto [4])
MKCFFPVLSCLAVLGVVSAQRQVTVQEGPLYRTEGSHITIWCNVSGYQGPSEQNFQWSIYLPSSPEREVQIVSTMDSSFPYAIYTQRVRGGKIFIERVQGNSTLLHITDLQARDAGEYECHTPSTDKQYFGSYSAKMNLVVIPDSLQTTAMPQTLHRVEQDPLELTCEVASETIQHSHLSVAWLRQKVGEKPVEVISLSRDFMLHSSSEYAQRQSLGEVRLDKLGRTTFRLTIFHLQPSDQGEFYCEAAEWIQDPDGSWYAMTRKRSEGAVVNVQPTDKEFTVRLETEKRLHTVGEPVEFRCILEAQNVPDRYFAVSWAFNSSLIATMGPNAVPVLNSEFAHREARGQLKVAKESDSVFVLKIYHLRQEDSGKYNCRVTEREKTVTGEFIDKESKRPKNIPIIVLPLKSSISVEVASNASVILEGEDLRFSCSVRTAGRPQGRFSVIWQLVDRQNRRSNIMWLDRDGTVQPGSSYWERSSFGGVQMEQVQPNSFSLGIFNSRKEDEGQYECHVTEWVRAVDGEWQIVGERRASTPISITALEMGFAVTAISRTPGVTYSDSFDLQCIIKPHYPAWVPVSVTWRFQPVGTVEFHDLVTFTRDGGVQWGDRSSSFRTRTAIEKAESSNNVRLSISRASDTEAGKYQCVAELWRKNYNNTWTRLAERTSNLLEIRVLQPVTKLQVSKSKRTLTLVENKPIQLNCSVKSQTSQNSHFAVLWYVHKPSDADGKLILKTTHNSAFEYGTYAEEEGLRARLQFERHVSGGLFSLTVQRAEVSDSGSYYCHVEEWLLSPNYAWYKLAEEVSGRTEVTVKQPDSRLRLSQAQGNLSVLETRQVQLECVVLNRTSITSQLMVEWFVWKPNHPERETVARLSRDATFHYGEQAAKNNLKGRLHLESPSPGVYRLFIQNVAVQDSGTYSCHVEEWLPSPSGMWYKRAEDTAGQTALTVMRPDASLQVDTVVPNATVSEKAAFQLDCSIVSRSSQDSRFAVAWYSLRTKAGGKRSSPGLEEQEEEREEEEEEDDDDDDDPTERTALLSVGPDAVFGPEGSPWEGRLRFQRLSPVLYRLTVLQASPQDTGNYSCHVEEWLPSPQKEWYRLTEEESAPIGIRVLDTSPTLQSIICSNDALFYFVFFYPFPIFGILIITILLVRFKSRNSSKNSDGKNGVPLLWIKEPHLNYSPTCLEPPVLSIHPGAID [IGSF3]	-2.57	-2.96	-0.0153	54.3	53.8	-0.047
MSPPSPGRRREQRRPRAAATMATPLPGRAGGPATPLSPTRLSRLQEKEELRELNDRLAHYIDRVRALELENDRLLLKISEKEEVTTREVSGIKALYESELADARRVLDETARERARLQIEIGKLRAELDEVNKSAKKREGELTVAQGRVKDLESLFHRSEVELAAALSDKRGLESDVAELRAQLAKAEDGHAVAKKQLEKETLMRVDLENRCQSLQEELDFRKSVFEEEVRETRRRHERRLVEVDSSRQQEYDFKMAQALEELRSQHDEQVRLYKLELEQTYQAKLDSAKLSSDQNDKAASAAREELKEARMRLESLSYQLSGLQKQASAAEDRIRELEEAMAGERDKFRKMLDAKEQEMTEMRDVMQQQLAEYQELLDVKLALDMEINAYRKLLEGEEERLKLSPSPSSRVTVSRATSSSSGSLSATGRLGRSKRKRLEVEEPLGSGPSVLGTGTGGSGGFHLAQQASASGSVSIEEIDLEGKFVQLKNNSDKDQSLGNWRIKRQVLEGEEIAYKFTPKYILRAGQMVTVWAAGAGVAHSPPSTLVWKGQSSWGTGESFRTVLVNADGEEVAMRTVKKSSVMRENENGEEEEEEAEFGEEDLFHQQGDPRTTSRGCYVM [LMNB2]	-7.21	-6.08	-1.66	51.4	50.3	1.67
MADPRVRQIKIKTGVVKRLVKEKVMYEKEAKQQEEKIEKMRAEDGENYDIKKQAEILQESRMMIPDCQRRLEAAYLDLQRILENEKDLEEAEEYKEARLVLDSVKLEA [TBCA]	-7.45	-6.72	0.241	55.4	53	0.298
MAAQCVTKVALNVSCANLLDKDIGSKSDPLCVLFLNTSGQQWYEVERTERIKNCLNPQFSKTFIIDYYFEVVQKLKFGVYDIDNKTIELSDDDFLGECECTLGQIVSSKKLTRPLVMKTGRPAGKGSITISAEEIKDNRVVLFEMEARKLDNKDLFGKSDPYLEFHKQTSDGNWLMVHRTEVVKNNLNPVWRPFKISLNSLCYGDMDKTIKVECYDYDNDGSHDLIGTFQTTMTKLKEASRSSPVEFECINEKKRQKKKSYKNSGVISVKQCEITVECTFLDYIMGGCQLNFTVGVDFTGSNGDPRSPDSLHYISPNGVNEYLTALWSVGLVIQDYDADKMFPAFGFGAQIPPQWQVSHEFPMNFNPSNPYCNGIQGIVEAYRSCLPQIKLYGPTNFSPIINHVARFAAAATQQQTASQYFVLLIITDGVITDLDETRQAIVNASRLPMSIIIVGVGGADFSAMEFLDGDGGSLRSPLGEVAIRDIVQFVPFRQFQNAPKEALAQCVLAEIPQQVVGYFNTYKLLPPKNPATKQQKQ [CPNE3]	1.91	-0.0585	-0.0447	50.8	50.8	-0.146
MSDEGSRGSRLPLALPPASQGCSSGGGGGGSSAGGSGNSRPPRNLQGLLQMAITAGSEEPDPPPEPMSEERRQWLQEAMSAAFRGQREEVEQMKSCLRVLSQPMPPTAGEAEQAADQQEREGALELLADLCENMDNAADFCQLSGMHLLVGRYLEAGAAGLRWRAAQLIGTCSQNVAAIQEQVLGLGALRKLLRLLDRDACDTVRVKALFAISCLVREQEAGLLQFLRLDGFSVLMRAMQQQVQKLKVKSAFLLQNLLVGHPEHKGTLCSMGMVQQLVALVRTEHSPFHEHVLGALCSLVTDFPQGVRECREPELGLEELLRHRCQLLQQHEEYQEELEFCEKLLQTCFSSPADDSMDR [HSPBP1]	0.863	0.675	0.303	50.8	51.2	0.0712
MASSSGNDDDLTIPRAAINKMIKETLPNVRVANDARELVVNCCTEFIHLISSEANEICNKSEKKTISPEHVIQALESLGFGSYISEVKEVLQECKTVALKRRKASSRLENLGIPEEELLRQQQELFAKARQQQAELAQQEWLQMQQAAQQAQLAAASASASNQAGSSQDEEDDDDI [DR1]	-1.34	-0.438	-0.174	58.2	52.7	0.91
MSAEVETSEGVDESEKKNSGALEKENQMRMADLSELLKEGTKEAHDRAENTQFVKDFLKGNIKKELFKLATTALYFTYSALEEEMERNKDHPAFAPLYFPMELHRKEALTKDMEYFFGENWEEQVQCPKAAQKYVERIHYIGQNEPELLVAHAYTRYMGDLSGGQVLKKVAQRALKLPSTGEGTQFYLFENVDNAQQFKQLYRARMNALDLNMKTKERIVEEANKAFEYNMQIFNELDQAGSTLARETLEDGFPVHDGKGDMRKCPFYAAEQDKGALEGSSCPFRTAMAVLRKPSLQFILAAGVALAAGLLAWYYM [HMOX2]	0.884	1.97	0.427	49.4	51	0.0224
